In publication PMC9062740:

Target: taxol-stabilized microtubules polymerized from porcine brain tubulin (UniProt P02550)
Test: MT-binding assay (cosedimentation)
Conditions: 5 μM CG2 mutant, […] taxol–MTs; parent: est. 1.0; read off a plot

CLIP-170 CG2 fragment (206-288), P30622 H276A, sequence (P30622 206-288 H276A): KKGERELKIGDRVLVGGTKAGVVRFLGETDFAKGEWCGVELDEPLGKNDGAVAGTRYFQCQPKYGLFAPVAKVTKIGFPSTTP
taxol-stabilized microtubules polymerized from porcine brain tubulin, sequence (P02550 whole entry, chain 1 of 2): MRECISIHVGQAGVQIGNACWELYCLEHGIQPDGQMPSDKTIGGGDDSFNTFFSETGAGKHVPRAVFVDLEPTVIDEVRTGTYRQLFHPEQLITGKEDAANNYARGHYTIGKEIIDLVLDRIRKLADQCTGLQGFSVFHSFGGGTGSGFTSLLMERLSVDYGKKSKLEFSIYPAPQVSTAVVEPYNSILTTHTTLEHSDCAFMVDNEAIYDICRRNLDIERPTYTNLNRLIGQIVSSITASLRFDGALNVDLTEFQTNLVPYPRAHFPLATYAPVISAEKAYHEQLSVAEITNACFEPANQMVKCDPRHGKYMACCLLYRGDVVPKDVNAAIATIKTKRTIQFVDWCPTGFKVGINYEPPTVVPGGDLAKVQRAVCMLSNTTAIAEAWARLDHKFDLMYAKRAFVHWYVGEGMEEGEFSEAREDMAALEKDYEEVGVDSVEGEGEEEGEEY
taxol-stabilized microtubules polymerized from porcine brain tubulin, sequence (chain, as listed by the source, chain 2 of 2): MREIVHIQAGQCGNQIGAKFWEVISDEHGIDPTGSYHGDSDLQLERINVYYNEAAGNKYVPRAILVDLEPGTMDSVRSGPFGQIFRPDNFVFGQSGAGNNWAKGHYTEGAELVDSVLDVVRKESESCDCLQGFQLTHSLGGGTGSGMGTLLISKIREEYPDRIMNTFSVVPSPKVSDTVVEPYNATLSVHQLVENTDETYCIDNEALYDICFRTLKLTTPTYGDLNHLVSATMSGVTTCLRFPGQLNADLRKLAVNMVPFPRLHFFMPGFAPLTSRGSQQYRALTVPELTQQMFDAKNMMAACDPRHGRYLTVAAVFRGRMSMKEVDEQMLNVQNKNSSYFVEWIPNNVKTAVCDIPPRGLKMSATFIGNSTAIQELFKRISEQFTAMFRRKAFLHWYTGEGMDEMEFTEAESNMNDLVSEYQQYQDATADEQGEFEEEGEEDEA

ratio to parent: 0.91
Substance: CLIP-170 CG2 fragment (206-288), P30622 H276A
